From patent US20240092899A1 (CHIA TAI TIANQING PHARMACEUTICAL GROUP, published 2024)

Assays:
[1] = target: heavy chain HZ14A9VH-CH1-IgG1; experiment: co-expression in ExpiCHO-S, protein A purification, non-reducing SDS-PAGE
Description: (§1) After transfection, the cells were placed in ExpiCHO™ medium (manufacturer: Thermo, Cat No. A2910001), and expressed and cultured at 32° C. with 5% CO₂ at 130 rpm. On day 10, the cell supernatant was collected, and the target protein was purified by protein A affinity chromatography using AKTA Pure 25 L system from GE and MabSelect SuRe LX packing. After elution, the concentration of the eluted protein was measured using NanoDrop Lite (Thermo Fisher Scientific). The purity of the eluted protein was measured by SEC-HPLC, and the protein purity of the sample used for the test was not lower than 80%. A total amount of […] of protein was taken from each sample and subjected to non-reducing SDS-PAGE electrophoresis. The protein was stained with Coomassie brilliant blue, and the electrophoresis results were observed.
(§2) After the co-expression and purification of HZ5G11VH-Cα-IgG1 and HZ14A9VL-IgK as well as HZ14A9VH-Cα-IgG1 and HZ5G11VL-IgK, various products were generated. […] The results above indicate that there is some interaction between the CL domain and MHCICα, thereby promoting the production of light and heavy-mispaired products.

[2] = target: heavy chain HZ14A9VH-Cα-IgG1; experiment: as above
Description: as §1, §2

[3] = target: heavy chain HZ5G11VH-CH1-IgG1; experiment: co-expression in ExpiCHO-S, protein A purification, non-reducing SDS-PAGE, Coomassie stain
Description: as §1, §2

[4] = target: heavy chain HZ14A9VH-Cα-IgG1; experiment: as above
[5] = target: heavy chain HZ5G11VH-CH1-IgG1; experiment: co-expression in ExpiCHO-S, protein A purification, non-reducing SDS-PAGE
Description: as §1, §2

[6] = target: T1, heavy chain HZ5G11VH-Cα-IgG1; experiment: as above
T1 construct: HZ5G11 heavy chain whose CH1 is replaced by MHCICα
Description: as §1, §2

[7] = target: heavy chain HZ14A9VH-CH1-IgG1; experiment: co-expression in ExpiCHO-S, protein A purification, non-reducing SDS-PAGE, Coomassie stain
Description: as §1, §2

human CD47 = target: T2, human CD47 (human, UniProt Q08722 19-139); experiment: SPR (Biacore 8K), antibody captured on chip, antigen injected
T2 construct: Bought antigen; also called ACROBiosystems Cat. No. CD7-H5227
T2 sequence (Q08722 19-139 limits assumed): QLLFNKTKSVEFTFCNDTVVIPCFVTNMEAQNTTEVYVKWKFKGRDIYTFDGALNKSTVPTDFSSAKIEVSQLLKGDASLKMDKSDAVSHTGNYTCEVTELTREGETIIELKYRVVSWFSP
Text: (§3) The affinity properties of the HZ5G11 monoclonal antibody, the HZ14A9 monoclonal antibody, MHL147-3322-IgG1-wt and MHL147-3322-IgG1-F118A bispecific antibodies were characterized by Biacore. The HZ5G11 monoclonal antibody, the HZ14A9 monoclonal antibody, MHL147-3322-IgG1-wt and MHL147-3322-IgG1-F118A bispecific antibodies were respectively immobilized onto a sensing chip by a capture method, and a human PDL1 (manufacturer: ACROBiosystems, Cat. No. PD1-H52H3) or human CD47 (manufacturer: ACROBiosystems, Cat. No. CD7-H5227) protein antigen solution with a certain concentration gradient was injected into the sample. Association/dissociation curves were acquired in real time by Biacore 8K Control Software 3.0, and data analysis was performed by Biacore Insight Evaluation Software 3.0. An association rate constant Ka, a dissociation rate constant Kd, and an equilibrium constant KD were obtained.

human PDL1 = target: T3, human PDL1 (human, UniProt Q9NZQ7 19-238); experiment: as above
T3 construct: Bought antigen; also called ACROBiosystems Cat. No. PD1-H52H3
T3 sequence (Q9NZQ7 19-238 limits assumed): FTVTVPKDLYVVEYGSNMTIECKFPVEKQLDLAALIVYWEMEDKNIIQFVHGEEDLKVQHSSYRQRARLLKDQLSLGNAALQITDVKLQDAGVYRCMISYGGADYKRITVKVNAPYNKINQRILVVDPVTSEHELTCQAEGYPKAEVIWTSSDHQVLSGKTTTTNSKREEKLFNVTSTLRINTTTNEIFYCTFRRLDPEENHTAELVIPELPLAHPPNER
Text: as §3

B1: light chain HZ5G11VL-IgK (other)
light: DIQMTQSPSSLSASVGDRVTITCKASQSVSNDVAWYQQKPGKAPKLLIYYAANRYTGVPDRFSGSGYGTDFTFTISSLQPEDIATYFCQQDYTSPYTFGQGTKLEIKRTVAAPSVFIFPPSDEQLKSGTASVVCLLNNFYPREAKVQWKVDNALQSGNSQESVTEQDSKDSTYSLSSTLTLSKADYEKHKVYACEVTHQGLSSPVTKSFNRGEC
binding result [1]: binds
binding result [2]: binds
binding result [3]: binds

B2: HZ5G11VL-IgK-F116A (other)
light chain: DIQMTQSPSSLSASVGDRVTITCKASQSVSNDVAWYQQKPGKAPKLLIYYAANRYTGVPDRFSGSGYGTDFTFTISSLQPEDIATYFCQQDYTSPYTFGQGTKLEIKRTVAAPSVAIFPPSDEQLKSGTASVVCLLNNFYPREAKVQWKVDNALQSGNSQESVTEQDSKDSTYSLSSTLTLSKADYEKHKVYACEVTHQGLSSPVTKSFNRGEC
notes: Variant of m12; also called light chain HZ5G11VL-IgK with F116A (EU numbering) in the CL domain
binding result [4]: binds

B3: HZ5G11VL-IgK-F118I (other)
light chain: DIQMTQSPSSLSASVGDRVTITCKASQSVSNDVAWYQQKPGKAPKLLIYYAANRYTGVPDRFSGSGYGTDFTFTISSLQPEDIATYFCQQDYTSPYTFGQGTKLEIKRTVAAPSVFIIPPSDEQLKSGTASVVCLLNNFYPREAKVQWKVDNALQSGNSQESVTEQDSKDSTYSLSSTLTLSKADYEKHKVYACEVTHQGLSSPVTKSFNRGEC
notes: Variant of m12; also called light chain HZ5G11VL-IgK with F118I (EU numbering) in the CL domain
binding result [4]: binds

B4: HZ5G11VL-IgK-S114A (other)
light chain: DIQMTQSPSSLSASVGDRVTITCKASQSVSNDVAWYQQKPGKAPKLLIYYAANRYTGVPDRFSGSGYGTDFTFTISSLQPEDIATYFCQQDYTSPYTFGQGTKLEIKRTVAAPAVFIFPPSDEQLKSGTASVVCLLNNFYPREAKVQWKVDNALQSGNSQESVTEQDSKDSTYSLSSTLTLSKADYEKHKVYACEVTHQGLSSPVTKSFNRGEC
notes: Variant of m12; also called light chain HZ5G11VL-IgK with S114A (EU numbering) in the CL domain
binding result [4]: binds

B5: light chain HZ14A9VL-IgK (other)
light: DIQMTQSPSSLSASVGDRVTITCKASENVVSYVSWYQQKPGKAPKLLIYGASNRYTGVPSRFIGSGSSTDFTLTISSLQPEDFATYYCGQSYSYPLTFGQGTKLEIKRTVAAPSVFIFPPSDEQLKSGTASVVCLLNNFYPREAKVQWKVDNALQSGNSQESVTEQDSKDSTYSLSSTLTLSKADYEKHKVYACEVTHQGLSSPVTKSFNRGEC
binding result [5]: binds
binding result [6]: binds
binding result [7]: binds

B6: HZ14A9 monoclonal antibody (antibody, V domains shown)
VH: QVQLVQSGAEVKKPGASVKVSCKVSGFNIEDDYIEWVRQAPGQGLEWMGRIDPANDKTKYAQKFQGRVTMTGDTSTNTVYMELSSLRSEDTAVYYCARPGLRRYYSMDYWGQGTLVTVSS
VL: DIQMTQSPSSLSASVGDRVTITCKASENVVSYVSWYQQKPGKAPKLLIYGASNRYTGVPSRFIGSGSSTDFTLTISSLQPEDFATYYCGQSYSYPLTFGQGTKLEIKR
notes: Humanized IgG1 kappa antibody from a mouse hybridoma; also called monoclonal IgG1K antibody HZ14A9 targeting human CD47
Kd (human CD47): 5.85 nM
koff (human CD47): 0.0143 s⁻¹
kon (human CD47): 2.45e+06 M⁻¹ s⁻¹

B7: MHL147-3322-IgG1-wt (bispecific antibody)
heavy 1: not shown
light 1: DIQMTQSPSSLSASVGDRVTITCKASQSVSNDVAWYQQKPGKAPKLLIYYAANRYTGVPDRFSGSGYGTDFTFTISSLQPEDIATYFCQQDYTSPYTFGQGTKLEIKIQRTPKIQVYSCHPAENGKSNFLNCYVSGFHPSDIEVDLLKNGERIEKVEHSDLSFSKDWSFYLLYYTRFTPTEKDEYACRVNHVTLSQPKIVKWDRGP
heavy 2: not shown
light 2: DIQMTQSPSSLSASVGDRVTITCKASENVVSYVSWYQQKPGKAPKLLIYGASNRYTGVPSRFIGSGSSTDFTLTISSLQPEDFATYYCGQSYSYPLTFGQGTKLEIKRTVAAPSVFIFPPSDEQLKSGTASVVCLLNNFYPREAKVQWKVDNALQSGNSQESVTEQDSKDSTYSLSSTLTLSKADYEKHKVYACEVTHQGLSSPVTKSFNRGEC
notes: IgG1 bispecific with LALA (L234A+L235A) and KIH mutations; The PD-L1 arm is modified with MHC-I elements; the CD47 arm is a Fab with wild-type kappa CL; also called anti-PDL1*CD47 bispecific antibody
Kd (human CD47): 3.31 nM
koff (human CD47): 0.0124 s⁻¹
kon (human CD47): 3.75e+06 M⁻¹ s⁻¹
Kd (human PDL1): 0.304 nM
koff (human PDL1): 0.000562 s⁻¹
kon (human PDL1): 1.85e+06 M⁻¹ s⁻¹

B8: MHL147-3322-IgG1-F118A (bispecific antibody)
heavy 1: not shown
light 1: DIQMTQSPSSLSASVGDRVTITCKASQSVSNDVAWYQQKPGKAPKLLIYYAANRYTGVPDRFSGSGYGTDFTFTISSLQPEDIATYFCQQDYTSPYTFGQGTKLEIKIQRTPKIQVYSCHPAENGKSNFLNCYVSGFHPSDIEVDLLKNGERIEKVEHSDLSFSKDWSFYLLYYTRFTPTEKDEYACRVNHVTLSQPKIVKWDRGP
heavy 2: not shown
light 2: DIQMTQSPSSLSASVGDRVTITCKASENVVSYVSWYQQKPGKAPKLLIYGASNRYTGVPSRFIGSGSSTDFTLTISSLQPEDFATYYCGQSYSYPLTFGQGTKLEIKRTVAAPSVFIAPPSDEQLKSGTASVVCLLNNFYPREAKVQWKVDNALQSGNSQESVTEQDSKDSTYSLSSTLTLSKADYEKHKVYACEVTHQGLSSPVTKSFNRGEC
notes: IgG1 bispecific with LALA (L234A+L235A) and KIH mutations; The PD-L1 arm is modified with MHC-I elements; the CD47 arm is a Fab whose kappa CL carries F118A (EU numbering); also called MHL147-3322-F118A; anti-PDL1*CD47 bispecific antibody
Kd (human CD47): 5.26 nM
koff (human CD47): 0.0249 s⁻¹
kon (human CD47): 4.74e+06 M⁻¹ s⁻¹
Kd (human PDL1): 0.384 nM
koff (human PDL1): 0.000606 s⁻¹
kon (human PDL1): 1.58e+06 M⁻¹ s⁻¹

B9: HZ5G11 monoclonal antibody (antibody, V domains shown)
VH: QITLKESGPTLVKPTQTLTLTCTVSGFSLSTYGVHWIRQPPGKALEWLGVIWRGVTTDYNAAFMSRLTITKDNSKNQVVLTMNNMDPVDTATYYCARLGFYAMDYWGQGTLVTVSS
VL: DIQMTQSPSSLSASVGDRVTITCKASQSVSNDVAWYQQKPGKAPKLLIYYAANRYTGVPDRFSGSGYGTDFTFTISSLQPEDIATYFCQQDYTSPYTFGQGTKLEIKR
notes: Humanized IgG1 kappa antibody from a mouse hybridoma; also called monoclonal IgG1K antibody HZ5G11 targeting human PD-L1
Kd (human PDL1): 0.282 nM
koff (human PDL1): 0.000427 s⁻¹
kon (human PDL1): 1.51e+06 M⁻¹ s⁻¹

B10: light chain HZ5G11VL-Cβ (other)
light: DIQMTQSPSSLSASVGDRVTITCKASQSVSNDVAWYQQKPGKAPKLLIYYAANRYTGVPDRFSGSGYGTDFTFTISSLQPEDIATYFCQQDYTSPYTFGQGTKLEIKIQRTPKIQVYSCHPAENGKSNFLNCYVSGFHPSDIEVDLLKNGERIEKVEHSDLSFSKDWSFYLLYYTRFTPTEKDEYACRVNHVTLSQPKIVKWDRGP
notes: HZ5G11 light chain whose CL is replaced by MHCICβ
binding result [1]: no binding

B11: light chain HZ14A9VL-Cβ (other)
light: DIQMTQSPSSLSASVGDRVTITCKASENVVSYVSWYQQKPGKAPKLLIYGASNRYTGVPSRFIGSGSSTDFTLTISSLQPEDFATYYCGQSYSYPLTFGQGTKLEIKIQRTPKIQVYSCHPAENGKSNFLNCYVSGFHPSDIEVDLLKNGERIEKVEHSDLSFSKDWSFYLLYYTRFTPTEKDEYACRVNHVTLSQPKIVKWDRGP
binding result [5]: no binding
